Source: publication PMC7473641, “The C-terminal helix of BubR1 is essential for CENP-E-dependent chromosome alignment” (Journal of Cell Science, 2020)

B1: CENP-E_(2091–2358)–GST (domain or fragment, human, UniProt Q02224-1 2091-2358, looked up)
chain: ESLREKCSRIKELLKRYSEMDDHYECLNRLSLDLEKEIEFQKELSMRVKANLSLPYLQTKHIEKLFTANQRCSMEFHRIMKKLKYVLSYVTKIKEEQHESINKFEMDFIDEVEKQKELLIKIQHLQQDCDVPSRELRDLKLNQNMDLHIEEILKDFSESEFPSIKTEFQQVLSNRKEMTQFLEEWLNTRFDIEKLKNGIQKENDRICQVNNFFNNRIIAIMNESTEFEERSATISKEWEQDLKSLKEKNEKLFKNYQTLKTSLASGAQ
notes: no own measurement; not shown: GST, C-terminal, kept
B2: CENP-E_(2069–2358)–GST (domain or fragment, human, UniProt Q02224-1 2069-2358, looked up)
chain: DRQNHQVKPEKRLLSDGQQHLTESLREKCSRIKELLKRYSEMDDHYECLNRLSLDLEKEIEFQKELSMRVKANLSLPYLQTKHIEKLFTANQRCSMEFHRIMKKLKYVLSYVTKIKEEQHESINKFEMDFIDEVEKQKELLIKIQHLQQDCDVPSRELRDLKLNQNMDLHIEEILKDFSESEFPSIKTEFQQVLSNRKEMTQFLEEWLNTRFDIEKLKNGIQKENDRICQVNNFFNNRIIAIMNESTEFEERSATISKEWEQDLKSLKEKNEKLFKNYQTLKTSLASGAQ
notes: no own measurement of the oligomeric state; source: E. coli BL21-CodonPlus (DE3)-RIL, purified; not shown: GST, C-terminal, kept
B3: CENP-E_(2055–2358), minimal kinetochore-targeting domain of CENP-E (domain or fragment, human, UniProt Q02224-1 2055-2358, looked up)
chain: RDQFIATLREMIARDRQNHQVKPEKRLLSDGQQHLTESLREKCSRIKELLKRYSEMDDHYECLNRLSLDLEKEIEFQKELSMRVKANLSLPYLQTKHIEKLFTANQRCSMEFHRIMKKLKYVLSYVTKIKEEQHESINKFEMDFIDEVEKQKELLIKIQHLQQDCDVPSRELRDLKLNQNMDLHIEEILKDFSESEFPSIKTEFQQVLSNRKEMTQFLEEWLNTRFDIEKLKNGIQKENDRICQVNNFFNNRIIAIMNESTEFEERSATISKEWEQDLKSLKEKNEKLFKNYQTLKTSLASGAQ
notes: Monomer by SEC-MALS; source: E. coli BL21-CodonPlus (DE3)-RIL, purified (HisTrap, Superdex 200)
B4: BubR1_(705–1050), pseudokinase domain of BubR1 (domain or fragment, human, UniProt O60566 705-1050, looked up)
chain: EKLELTNETSENPTQSPWCSQYRRQLLKSLPELSASAELCIEDRPMPKLEIEKEIELGNEDYCIKREYLICEDYKLFWVAPRNSAELTVIKVSSQPVPWDFYINLKLKERLNEDFDHFCSCYQYQDGCIVWHQYINCFTLQDLLQHSEYITHEITVLIIYNLLTIVEMLHKAEIVHGDLSPRCLILRNRIHDPYDCNKNNQALKIVDFSYSVDLRVQLDVFTLSGFRTVQILEGQKILANCSSPYQVDLFGIADLAHLLLFKEHLQVFWDGSFWKLSQNISELKDGELWNKFFVRILNANDEATVSVLGELAAEMNGVFDTTFQSHLNKALWKVGKLTSPGALLFQ
notes: source: E. coli BL21-CodonPlus (DE3)-RIL (overnight at 18°C), purified (HisTrap, 3C protease, SEC); not shown: His6, N-terminal, cleaved
B5: CENP-E_(2055–2608), kinetochore- and centrosome-targeting domain of CENP-E (domain or fragment, human, UniProt Q02224-1 2055-2608, looked up)
chain: RDQFIATLREMIARDRQNHQVKPEKRLLSDGQQHLTESLREKCSRIKELLKRYSEMDDHYECLNRLSLDLEKEIEFQKELSMRVKANLSLPYLQTKHIEKLFTANQRCSMEFHRIMKKLKYVLSYVTKIKEEQHESINKFEMDFIDEVEKQKELLIKIQHLQQDCDVPSRELRDLKLNQNMDLHIEEILKDFSESEFPSIKTEFQQVLSNRKEMTQFLEEWLNTRFDIEKLKNGIQKENDRICQVNNFFNNRIIAIMNESTEFEERSATISKEWEQDLKSLKEKNEKLFKNYQTLKTSLASGAQVNPTTQDNKNPHVTSRATQLTTEKIRELENSLHEAKESAMHKESKIIKMQKELEVTNDIIAKLQAKVHESNKCLEKTKETIQVLQDKVALGAKPYKEEIEDLKMKLVKIDLEKMKNAKEFEKEISATKATVEYQKEVIRLLRENLRRSQQAQDTSVISEHTDPQPSNKPLTCGGGSGIVQNTKALILKSEHIRLEKEISKLKQQNEQLIKQKNELLSNNQHLSNEVKTWKERTLKREAHKQVTCENSPKS
notes: Dimer by SEC-MALS; Aggregated in 150 mM NaCl and was kept in 500 mM NaCl; Cloned in pET-3aTr; also called longer dimeric kinetochore-targeting domain; source: E. coli BL21-CodonPlus (DE3)-RIL, purified (HisTrap, Superdex 200 in 500 mM NaCl)

What was measured:
[1] = target: B4; assay: ITC; 276 µM BubR1 705-1050 titrated into 25 µM CENP-E 2091-2358-GST at 37°C; 20 mM HEPES pH 7.5, 150 mM NaCl, 1 mM EDTA, 0.005% Tween-20, 0.5 mM TCEP; one set of sites; conditions: both partners purified
[2] = target: B4; assay: SEC; co-elution on Superdex Increase 200 10/300 GL in binding buffer (20 mM HEPES pH 7.5, 150 mM NaCl, 1 mM EDTA, 1 mM DTT); proteins mixed in equimolar ratio at ~7 µM; fractions on Coomassie gels; conditions: both partners purified
CENP-E_(2091–2358)–GST = target: B1; assay: ITC; 276 µM BubR1 705-1050 titrated into 25 µM CENP-E 2091-2358-GST at 37°C; 20 mM HEPES pH 7.5, 150 mM NaCl, 1 mM EDTA, 0.005% Tween-20, 0.5 mM TCEP; one set of sites; conditions: both partners purified
[3] = target: T1, BubR1_(432–1050), C terminus of BubR1 containing the pseudokinase domain (human, UniProt O60566 432-1050); assay: SEC; co-elution on Superdex Increase 200 10/300 GL in binding buffer (20 mM HEPES pH 7.5, 150 mM NaCl, 1 mM EDTA, 1 mM DTT); proteins mixed in equimolar ratio at ~7 µM; fractions on Coomassie gels; conditions: both partners purified
T1 construct: source: purified recombinant

[4] = target: the molecule itself; assay: SEC-MALS; 100 µl at 1 mg/ml on Superdex-200 10/300 GL Increase, 22°C, gel filtration buffer (20 mM HEPES pH 7.5, 300 mM NaCl, or 500 mM for CENP-E 2055-2608, 1 mM EDTA, 1 mM DTT)

Binder: B1
Kd [1]: 318 nM

Binder: B2
binding result [2]: binds

Binder: B3
binding result [2]: binds

Binder: B4
dH (CENP-E_(2091–2358)–GST): -5.1 kcal/mol
stoichiometry N (CENP-E_(2091–2358)–GST): 0.908

Binder: B5
binding result [3]: binds
stoichiometry N [4]: 2
